Test results from US20240166688A1 (NIBEC, published 2024).

Molecular target: HDAC5 protein (Abcam, MA, USA)
Assay: SPR, Biacore T200; HDAC5 amine-coupled to CM5 chip, peptide as analyte, 1:1 model

Chain of HDAC5 protein (Abcam, MA, USA) (chain, as listed by the source): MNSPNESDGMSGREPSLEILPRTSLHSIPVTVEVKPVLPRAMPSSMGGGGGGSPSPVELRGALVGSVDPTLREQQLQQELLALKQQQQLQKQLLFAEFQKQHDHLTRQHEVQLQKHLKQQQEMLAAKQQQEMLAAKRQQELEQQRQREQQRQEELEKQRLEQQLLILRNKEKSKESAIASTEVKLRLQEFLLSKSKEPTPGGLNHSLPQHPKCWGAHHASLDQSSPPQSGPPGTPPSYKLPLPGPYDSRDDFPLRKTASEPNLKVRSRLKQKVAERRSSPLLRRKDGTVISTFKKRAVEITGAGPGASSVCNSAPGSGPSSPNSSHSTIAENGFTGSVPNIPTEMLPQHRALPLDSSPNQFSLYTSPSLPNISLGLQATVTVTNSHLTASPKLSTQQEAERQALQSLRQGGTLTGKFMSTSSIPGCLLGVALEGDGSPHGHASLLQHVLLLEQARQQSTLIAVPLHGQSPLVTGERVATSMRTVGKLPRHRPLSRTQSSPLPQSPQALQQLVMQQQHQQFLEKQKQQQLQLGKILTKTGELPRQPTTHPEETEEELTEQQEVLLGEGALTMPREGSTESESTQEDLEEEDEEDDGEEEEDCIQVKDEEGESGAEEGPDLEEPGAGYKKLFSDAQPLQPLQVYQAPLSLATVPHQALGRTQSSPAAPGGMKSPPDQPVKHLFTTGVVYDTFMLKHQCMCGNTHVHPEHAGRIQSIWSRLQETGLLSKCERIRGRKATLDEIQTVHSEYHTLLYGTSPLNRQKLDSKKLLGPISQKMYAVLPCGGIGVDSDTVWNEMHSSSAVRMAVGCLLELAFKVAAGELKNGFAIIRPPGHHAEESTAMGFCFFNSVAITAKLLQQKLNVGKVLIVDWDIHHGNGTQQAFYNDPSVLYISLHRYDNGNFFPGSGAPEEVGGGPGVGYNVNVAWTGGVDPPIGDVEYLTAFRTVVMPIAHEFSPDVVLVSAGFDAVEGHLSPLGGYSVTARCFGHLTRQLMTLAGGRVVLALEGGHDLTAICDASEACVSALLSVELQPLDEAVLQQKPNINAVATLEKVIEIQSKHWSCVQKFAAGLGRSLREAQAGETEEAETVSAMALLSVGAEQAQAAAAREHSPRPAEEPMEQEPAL

| Binder | Kd [nM] | koff [s⁻¹] | kon [M⁻¹ s⁻¹] |
| --- | --- | --- | --- |
| GKMSTRGRKCCRRKK [peptide of SEQ ID NO: 5 (M4)] | 468 | 0.0309 | 65900 |
| GKMSTRGRKMCRRKK [peptide of SEQ ID NO: 6 (M5)] | 444 | 0.0446 | 100000 |
| GKCSTRGRKMMRRKK [peptide of SEQ ID NO: 4 (M3)] | 940 | 0.0679 | 72200 |
| GKMSTRGRKMMRRKK [peptide of SEQ ID NO: 8 (M7)] | 86.8 | 0.00478 | 55000 |
| GKCSTRGRKCCRRKK (also called AIP) [peptide of SEQ ID NO: 1] | 676 | 0.0726 | 108000 |
| GKCSTRGRKCMRRKK [peptide of SEQ ID NO: 2 (M1)] | 924 | 0.0687 | 74400 |
| GKCSTRGRKMCRRKK [peptide of SEQ ID NO: 3 (M2)] | 725 | 0.0595 | 82100 |
| GKMSTRGRKCMRRKK [peptide of SEQ ID NO: 7 (M6)] | 704 | 0.0476 | 67500 |
